In data set [1] the target is T1, AgrA (Staphylococcus aureus COL, UniProt Q5HEG2 1-238).
T1 sequence: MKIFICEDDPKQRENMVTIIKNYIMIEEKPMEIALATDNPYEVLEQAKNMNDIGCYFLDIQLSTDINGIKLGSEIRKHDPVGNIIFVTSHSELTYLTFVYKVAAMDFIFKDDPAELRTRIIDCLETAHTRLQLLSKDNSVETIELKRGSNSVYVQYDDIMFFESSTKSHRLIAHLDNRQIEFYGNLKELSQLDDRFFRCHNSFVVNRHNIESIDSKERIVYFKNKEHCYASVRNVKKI
The data set is described as follows: competition.

Data set [2] deals with T2, AgrA DBD (LytTR domain) (Staphylococcus aureus, UniProt Q5HEG2 138-238).
T2 sequence: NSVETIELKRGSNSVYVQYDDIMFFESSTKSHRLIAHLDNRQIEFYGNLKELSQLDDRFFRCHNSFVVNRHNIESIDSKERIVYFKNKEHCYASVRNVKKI
The data set is described as follows: X-ray crystallography.

In data set [3] the target is T3, AgrA~P (Staphylococcus aureus COL, UniProt Q5HEG2 1-238).
T3 sequence: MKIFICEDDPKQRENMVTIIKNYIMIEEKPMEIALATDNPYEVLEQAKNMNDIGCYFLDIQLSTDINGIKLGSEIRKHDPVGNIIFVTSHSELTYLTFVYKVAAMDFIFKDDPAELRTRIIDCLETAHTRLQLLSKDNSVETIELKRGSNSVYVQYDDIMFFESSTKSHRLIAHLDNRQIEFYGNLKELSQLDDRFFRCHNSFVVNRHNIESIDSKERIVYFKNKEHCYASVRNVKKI
The data set is described as follows: SPR. For orientation: In SPR one partner is held on a chip, and binding of the other changes the refractive index at the surface.

The target of data set [4] is T1, AgrA. Nature of the data set: SPR.
The target of data set [5] is T3, AgrA~P. Nature of the data set: competition.
For data set [6], the target named is T2, AgrA DBD (LytTR domain). The data set is described as follows: X-ray crystallography. This is another data set of the same source.
Data set [7] concerns the target T2, AgrA DBD (LytTR domain). Nature of the data set: X-ray crystallography. The source holds these as a separate data set.
For data set [8], the target named is T2, AgrA DBD (LytTR domain). The data set is described as follows: X-ray crystallography. This is another data set of the same source.

Read-outs that look alike come from different tables or passages of the source.

B1: P1 promoter (SPR) (dsDNA)
DNA 1: TCGAAATACCCGATGAAGTAAGTAGCATTAACTT
DNA 2: AAGTTAATGCTACTTACTTCATCGGGTATTTCGA
Take B1: the binding result in data set [1] is given as “binds”.

B2: P3_S1 (dsDNA)
DNA 1: TCGACTAGTTAAGAAA
DNA 2: ATTTCTTAACTAGTCG
Regarding B2, the binding result in data set [2] was “binds”.

B3: P2-P3 intergenic region (negative control) (dsDNA)
DNA 1: TTTTTATGTTAAAATATTAAATACAAATTAC
DNA 2: GTAATTTGTATTTAATATTTTAACATAAAAA
For B3, the binding result in data set [3] and in data set [4] was “no binding” each time.

B4: P3 promoter (SPR) (dsDNA)
DNA 1: TTCTTAACTAGTCGTTTTTTATTCTTAACTGTAA
DNA 2: TTACAGTTAAGAATAAAAAACGACTAGTTAAGAA
For the molecule B4, the binding result in data set [1] and in data set [5] was “binds” each time.

B5: P2_S2 (dsDNA)
DNA 1: TTTAACAGTTAAGTAT
DNA 2: AATACTTAACTGTTAA
For B5, in data set [6], the binding result was “binds”.

B6: P2_S1 (dsDNA)
DNA 1: TCCTACAGTTAGGCAA
DNA 2: ATTGCCTAACTGTAGG
As to B6, in data set [7], the binding result is listed as “binds”.

B7: P3_S2 (dsDNA)
DNA 1: ATTTACAGTTAAGAAT
DNA 2: AATTCTTAACTGTAAA
In the case of B7, the binding result in data set [8] is “binds”.

The values are drawn from article PMC5600425.
